Experimental data reported in a protein production outcome set (Wang et al. 2014).

assay: label from the status in PepcDB records

**Q.** For “MGCAEEKKTDVRWATFNIRYDNPQDSLNNWQYRKDRVCQFIKDHELDIVGMQEVLHNQFQDLRAGLPEYDGIGVGRDDGKTAGEYAPLFYRKDKYEVLDSNTFWLAENPDSVGMMGWDAVCVRIATWAKFKDKATGKIFMAVNTHFDHVGEEARRQSALLIIRKIKEIVGERPAVVTGDFNVTDASDAYETITTNEFVMKDAYKTAARVTGVDYTFHDFARIPAEDCEKIDFIFVTPQVLVKSCEIPAEVPEALLSDHNPQLADLELEHHHHHH”, which protein production is on record?
**A.** The protein production was “failed”.

**Q.** Which protein production does the source give for “MGDALSLLQQADRLHRQLLRTGPAQAPCWEPPVDMIETESAVLIYVALPGVAAGDVAVRFDPDGISISGVRPLPALRNARIHGLEIPYGRFQRRIRLPLHALEPEAPTLADGCLTLTLKKLREAPLEHHHHHH” here?
**A.** The protein production was “not failed”.

**Q.** For “MGDFDPNKPVVISEFSPKEGGLGTRMLLYGENFGSDISKIKVTIGGQDSKVVGAKGKSLYCVVPAKAYDGDIKLSILNDEGEEIANTEANEKFVYQKKMLVTTFLGTMYDGNTKYDLKDGPFDDCGGFGGAVWLSFDPKNHNHLYLVGEQHPTRLIDFEKEYVSTVYSGLSKVRTICWTHEADSMIITNDQNNNDRPNNYILTRESGFKVITELTKGQNCNGAETHPINGELYFNSWNAGQVFRYDFTTQETTPLFTIQDSGWEFHIQFHPSGNYAYIVVVNQHYILRSDYDWKTKRLTTPYIVCGQQGAKDWVDGVGKKARMHAPRQGTFVKNPAYKGSSDEYDFYFCDRENHCIRILTPQGRVTTFAGRGSNGTSGYNDGDLRQEARFNHPEGIVYDEERECFFIGDRENRRIRKIGLEHHHHHH”, which protein production is on record?
**A.** The protein production was “failed”.

**Q.** For “MGDMIFGILTWLPGLILAITLHEAAHGYVASALGDQTARLLGRVTLNPIRHVDPFGTLVLPGLLFLVGAPFLFGWAKPVPVDYRNLRHPKRDMAWVALAGPGMNIFLAVVSAAALHGALLLPDPAADWLITTLQKSVLINCVLAVFNMIPVPPLDGGRVLVGILPMRAAVVVARMERVGMLALIGVIFLLPLALSQFGVDFDPFSRIIGPVVRALLGAVYTTAGIPLF”, which protein production is on record?
**A.** Its protein production is “failed”.

**Q.** Which protein production does the source give for “MGDRIAVQAEPTPAKLRGAASGDLVMRKVCMQQWRPTAPRGEYVSTEWSAGYVTDVNYTFGYYGELNPLRCRLPLLTVGRHAPKIENACELGFGQGLSVSIHAAAQPGINWYGTDFNPSQAAFAAEMVRLSGAEAKLYDEAFAEFCNRKDLPDFDFIGLHGIWTWISDQNRHVLVDFIRRKLRPGGVLYISYNTLPGWSSSAPIRHLMKRHADVMGAPGQGVIGQTDAALNFIDQFLALDPLYAKVNPGAVERLKQVKAQDRKYLAHEYMNRDWHPMYFADVENWLGDAKVGFACSAHVLDNLYDLNMTPQQTEFMRDVSDVSLRETIRDFCMNQQFRRDYWVRGVRALIGHEQVAAMREERVVMTVAQADLPTKVRGVIGEATLNDDVYQPLFEILLDHKPHSVLELETHLASKSLHFGQLSSALTILLGLGVITTAAAAQDVSKAKARTLALNKTIARRSLSVGDIAYFASPITGGGITASRFAQLFWLSRQNGGKTAEDWASFAYQVLQGQGQAIIKDGATLQGEDNLTELRAQATHWGAHVLPIWNALGV” here?
**A.** The protein production was “failed”.

**Q.** For “MGEKKGLSFFEKYLSLWVALCIVLGILIGKFMPSLPRTLSKLTIANVNMAIAVLIWAMIYPMMVKVDFSAIKRVHKGQMLKGLIVTWVTNWLIKPFSMFLISSFFIGTIFSMKLGLIDPSLAKEYIAGAILLGAAPCTAMVFVWSYLADGDPLYTLVQVATNDIIILFAFAPIVGFLMGLNKVPVPYDTLLLSVVLFVVIPLSAGYLSRRYILKTKGHKWFEQEFLPKLSTISIVGLLLTLILLFSFQGEIILENPLHIALIAIPLTIQTYFIFAIAYGWAWIWKLPHKVAAPASFIGASNFFELAVAVAIALFGLDSGAALATVVGVLEEVPIMLSLVWIANKTRHFFTAKFETGSGSKAWALLRNSLPYYPYCPNHEDIRKDTYKQMNLYPVLFFLG”, which protein production is on record?
**A.** The protein production was “failed”.

**Q.** Which protein production does the source give for “MGEMTLAFIEEQYKELDNLNNKENPAVLTRNTATGELLVRKIIPISFAPVLEELKKLSSNYLPKIEVMIPNGSELIVYEEYINGKNLADLMKVNAPFDADEVTGLMLMLSDALTELHTNAIIHRDIKPSNIMISSDGVLKLIDFDASRVFEVGKNQDTVNLGTIGYAAPEQYGYSQTDARSDIYSIGVLMLELLRGKNNLPDKETATSLEKIAMQAASFDPEQRFQTIQEFRTAIKNDSLGPTFVSELTNLSDFATIEDSADEINWATSTDEYEKDFIPWYKHIPGFRTGHTWKMVVAVLGYIFMAFGLFTPPTEGVKMNNIENFFANFFLIFPAFIIFTNLCGIWSKLPLLKSSSKGTRKVGIVVYIFVCIMIYGIYTEIFS” here?
**A.** Its protein production is “failed”.

**Q.** For “MGEYCEKDFRSLQRCAEMNNIRIFKFLVILYSLLLIASSFVYYYREDIYIRPESYFYLLTLAVGVTFAQIIFFGRNSRSEVKFLIFVEVLLVALSFTLTQQALYKTVLGRDPWFHWILVEEIVKRGSIPPYEQIPIPYVRMPNFHLVIASGIVLTNLSYKWAQVLFAGFPTLILLMLVAFLYSKKLFDDQVGLVSILLVAISDNVLDMVGKNIVPNTLGVALAFLIFYLIYFREYHNLMIKFLSVLVAIALAFMHTVSLTFLIWQIFVISILSLILKDKSAKFYLAHFAFLIVSALFVWGIYSGFYLKSLVIIFKQLFIYGFDIERYEAKLPTTFLDAVIARSGMVLYFAIAGIITFYLLVKTLKRRAFGIKLSTLSSILATISILAGAVSFLTPALSGIAHRFWYYGEVLSSAFVGSVLANLYERKKVIIVFNLIFICALSMLMFKANVANDDNPLVPYYSQRTGWHDSEIEAGKFVISKQGNIPIASDWDYSWNLRYLKTSLMASGALKDINRVTPKTFEEVKNCNCLFVFRKDLLENRLFYLGGRWTQTPHLPLSTLNLVIKELSENEGIIYNNNNILIMHLV”, which protein production is on record?
**A.** Its protein production is “failed”.

**Q.** With “MGEYYHATVNGVVEYGAFVDLSEHVSGLIHESTYSGDPDLAVDDDVIVHLSAVRDNGDLSFEFVDPEEYRTEQRSLEHHHHHH” as the sequence, how does the protein production read?
**A.** The protein production was “failed”.

**Q.** Which protein production does the source give for “MGFLDKVEKSIEGAVSGVFARAFRGEVEPVEIAGRLQRELDSEAQILSRDKSLVPNDFVVRLSSRDYERLVPYTKTLNAEIIPTLRDHASERHYVFNGPIHIRYDLDDALPVGKFTVLTGENHAKAVSDRRAPLVLEVDGVRHPLTPPGLTIGRGSDADIRINDPGISRLHARINVWPQGNDIGLSIEDLDSTNGVTVNGVKVTSTELGDGSRIEIGSTRMLVHSPTRI” here?
**A.** The protein production was “failed”.

**Q.** For “MGFTDSIREHVREHRTGMVHDLMFAVVWVAIVNFLFSAVFTDAPSWAFYMFMLAGIPAYFGFFFSLSMARAQQDSQ”, which protein production is on record?
**A.** Its protein production is “failed”.

**Q.** For “MGFTELNSVEHYIIHQISGVNLNDAQCKNQVSEPQATYALQWQFKSSEQLGRDVNEVLVESELVKALIRLNPEIEANPHLADEVIHKLRAILISVNQVGLVKANEEFFAWMTGEKTMPFGENNRHVPVKLIDLEDLTRNGYVVTNQFRIHHRETKIPDVVLMINGIPVVVGEAKTPIRPSVSWLDGAHEVHNIYENAVPQLFVPNILSFATEGKELFYGAIRCPLEFWAPWRTEEDDNSKGIGQVSKALGLTEIGKELIDLLSPVRLLDIMRNFSLFTTNKKKQRIKVIPRFQQYEGANKIVERVIEGKIKKGLIWHFQGSGKSLLMVFAAQKLRRTAQLKSPTVIVLVDRTDLDTQISGTFNAADVANVESTDSIKELQRMLERDTRKIIISMIHKFRDAKPNMNTRENIIVLVDEAHRTQEGDLGRQMRAALPNAFLFGLTGTPVNKADKNTFWAFGAEEDKGGYMSRYTFHDSIRDEATLPLHFEPRLVDVHVDKEALDKAFKDFKESAALSDEEADALNQKSAKMSAFLKSPERVEKIVEDIAIHFMDKVEPHGFKAMVVTPDREACVQYKEELDKHFPESASKVVISTSANDDFEFKQKWGVDKSQQEKLVDEFNDEKSDLKFLVVTAKLLTGFDAPICQTMYLDKSIKDHTLLQAICRTNRLYPNKTFGCIVDYFGVFDDAAKALEFDEESVQQVISNLSELRSKLPQAMQDTLAHFIGVDRSLEGFEGLEAAQNAIGDNDKKDAFALDFKYLAKLWESLSPDSVLDEYNEDYKWLAQVYESVKPASDNIGKLLWLALGAQTTQLIHDNVHVGDVHNLEEFVLDADVIENIFNNPDPRKIKQLEKELAKRFKDRGDLPVFKSLSERLEELRDKAEKGLIASIDFVKELCKIAKETVQAEKDLDDELQEKTPQAALTDLFLELKDDQTPAVVERIVTDIDAIVRIVRFPGWQTTTGGEREVQKSLRKALLKYKLHTDQTLFDRAYGYIKEYY”, which protein production is on record?
**A.** The protein production was “failed”.

**Q.** With “MGGATSGAVSSLNSRLALAHTPLLNTPQKPVDCRPHRTRTSDSAPMELHYRITPAHTEAWIAEPLKQELLKDDQQHVRAMSTFARWQSRFIGPVMFTLCLIGGCLSIYFPERNFTAEKVIAMVAFALIFIPLWWRFSGRWIKHLQARIAATPIKPQAPLRGLSQRLIETRLRAVEGTYCLNFDDQGFTLLNARGGQSSLAWKQIASVQEIPDFYLVADADMERQGVACFIAKHTDLMPTEAYQQGLQAFLSQCPAALPAH” as the sequence, how does the protein production read?
**A.** Its protein production is “failed”.
